{
  "source": "patent US20250042994A1",
  "about": "(HAINAN SIMCERE ZAIMING PHARMACEUTICAL, published 2025)",
  "binders": {"B1": {"name": "F4.22.6 (antibody, human IgG1, V domains shown)", "VH": "QVQLQQSGPELVKPGASVKISCKASGYAFSSFWMNWVKQRPGQGLEWIGRIYPGDGDTNYNGKFKGKATLTADKSSTTAYMHLSSLTSVDSAVYFCTRSVITAVVDWYFDVWGAGTTVTVSS", "VL": "QIVLSQSPAILSASPGEKVTLTCRASSSVNFMHWYQQKPGSSPKPWIYATSNLASGAPARFSGSGSGTSYSLTISRVEAEDAAAYYCQQWSSYPIFTFGSGTKLEIK", "notes": "human-murine chimeric antibody, human IgG1"}, "B2": {"name": "F4.37.6 (antibody, human IgG1, V domains shown)", "VH": "QVQLQQSGAELARPGASVKLSCKASGYTFTSFWMQWLKQRPGQGLEWIGTIYPGDGDTRYTQKFKGKATLTADKSSNTAYMQLSSLASEDSAVYYCARGALSNYGGFAYWGQGTLVTVSA", "VL": "NIVLTQSPASLAVSLGQRATISCRASESVDSYGHSFMHWYQQKPGQPPKLLIYLASNLESGVPARFSGSGSRTDFTLTIDPVEADDAATYYCQQNNEDPWTFGGGTKLEIK", "notes": "as for B1"}, "B3": {"name": "F4.33.12 (antibody, human IgG1, V domains shown)", "VH": "QVQLQQSGAELVRPGSSVKISCKGSGYAFSSYWMNWVKQRPGQGLEWIGQIYPGDGDTNYNGKFKGKATLTADKSSSTAYMQLSSLTSEDSAVYFCARAGFYYGSDSSMDYWGQGTSVTVSS", "VL": "not shown", "notes": "as for B1"}, "B4": {"name": "F4.35.5 (antibody, human IgG1, V domains shown)", "VH": "EIQLQQSGPELVKPGASVKVSCKASGYAFTSYNMYWVKQSHGKSLEWIGYIDPYNGDTRYNQKFKGKATLTVDKSSSTAYMHLNSLTSEDSAVYYCTRSGTGRDYWGQGTTLTVSS", "VL": "QIVLTQSPAIMSASPGEKVTMTCSASSSISYMFWFQQKPGSSPRLLIYDTSSLASGVPVRFSGSGSGTSYTLTISRMEAEDAATYYCQQWSNYPYTFGGGTKLEMK", "notes": "as for B1"}},
  "data": [
    {"molecular_target": "T1, human CD19 on CHO-K1-human CD19 cells (human, UniProt P15391 20-556)", "T1 construct": "whole, on cells; also called CHO-K1-human CD19-2C8", "T1 sequence (looked up)": "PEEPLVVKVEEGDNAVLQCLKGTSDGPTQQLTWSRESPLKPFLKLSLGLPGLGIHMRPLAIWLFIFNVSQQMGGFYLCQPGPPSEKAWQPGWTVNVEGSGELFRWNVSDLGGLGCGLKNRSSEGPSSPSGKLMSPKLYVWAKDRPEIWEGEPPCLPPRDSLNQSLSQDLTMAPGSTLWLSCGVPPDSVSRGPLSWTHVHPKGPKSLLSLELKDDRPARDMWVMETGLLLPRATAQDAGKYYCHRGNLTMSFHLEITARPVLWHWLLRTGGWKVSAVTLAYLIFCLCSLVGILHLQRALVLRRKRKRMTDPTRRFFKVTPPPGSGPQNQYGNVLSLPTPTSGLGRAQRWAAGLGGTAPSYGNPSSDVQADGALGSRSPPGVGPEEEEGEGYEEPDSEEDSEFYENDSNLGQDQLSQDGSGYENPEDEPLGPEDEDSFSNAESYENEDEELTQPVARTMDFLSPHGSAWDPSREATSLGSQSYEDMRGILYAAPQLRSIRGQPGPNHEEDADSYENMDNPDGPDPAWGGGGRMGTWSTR", "assay": "FACS on CHO-K1-human CD19 cells", "units": {"EC50": "nM"}, "values": [
      {"binder": "B1", "EC50": 0.1, "Maximum mean fluorescence intensity": 14700},
      {"binder": "B2", "EC50": "~0.035", "Maximum mean fluorescence intensity": 8490},
      {"binder": "B3", "EC50": 1.47, "Maximum mean fluorescence intensity": 52500},
      {"binder": "B4", "EC50": 1.08, "Maximum mean fluorescence intensity": 50000}
    ]},
    {"molecular_target": "T2, human CD19 on Raji cells (human, UniProt P15391 20-556)", "T2 construct": "whole, on cells", "T2 sequence (looked up)": "T1 sequence (looked up)", "assay": "FACS on Raji cells", "units": {"EC50": "nM"}, "values": [
      {"binder": "B1", "EC50": 0.67, "Maximum mean fluorescence intensity": 27300},
      {"binder": "B2", "EC50": 0.51, "Maximum mean fluorescence intensity": 24600},
      {"binder": "B3", "EC50": 2.6, "Maximum mean fluorescence intensity": 28200},
      {"binder": "B4", "EC50": 0.69, "Maximum mean fluorescence intensity": 25000}
    ]},
    {"molecular_target": "T3, monkey CD19 on HEK293T-monkey CD19 cells (monkey)", "T3 construct": "whole, on cells", "assay": "FACS on HEK293T-monkey CD19 cells", "summary_of_the_method": "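Cells blocked in PBS + 2% (w/w) BSA at 2×10⁶ cells/ml, then incubated with test antibody on ice for 2 h. After washes, binding read by flow cytometry as mean fluorescence intensity (MFI). EC50 from fitted MFI curves. Parental HEK293T cells run by the same method.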", "units": {"EC50": "nM"}, "values": [
      {"binder": "B1", "EC50": "~129", "Maximum mean fluorescence intensity": 7380},
      {"binder": "B2", "Maximum mean fluorescence intensity": 58},
      {"binder": "B3", "Maximum mean fluorescence intensity": 50},
      {"binder": "B4", "Maximum mean fluorescence intensity": 70}
    ]},
    {"molecular_target": "T4, cynomolgus monkey CD19 on peripheral blood B cells (cynomolgus monkey (Macaca fascicularis), UniProt A0A2K5W8L9 20-557)", "T4 construct": "whole, on cells; also called cynomolgus monkey B cells", "T4 sequence": "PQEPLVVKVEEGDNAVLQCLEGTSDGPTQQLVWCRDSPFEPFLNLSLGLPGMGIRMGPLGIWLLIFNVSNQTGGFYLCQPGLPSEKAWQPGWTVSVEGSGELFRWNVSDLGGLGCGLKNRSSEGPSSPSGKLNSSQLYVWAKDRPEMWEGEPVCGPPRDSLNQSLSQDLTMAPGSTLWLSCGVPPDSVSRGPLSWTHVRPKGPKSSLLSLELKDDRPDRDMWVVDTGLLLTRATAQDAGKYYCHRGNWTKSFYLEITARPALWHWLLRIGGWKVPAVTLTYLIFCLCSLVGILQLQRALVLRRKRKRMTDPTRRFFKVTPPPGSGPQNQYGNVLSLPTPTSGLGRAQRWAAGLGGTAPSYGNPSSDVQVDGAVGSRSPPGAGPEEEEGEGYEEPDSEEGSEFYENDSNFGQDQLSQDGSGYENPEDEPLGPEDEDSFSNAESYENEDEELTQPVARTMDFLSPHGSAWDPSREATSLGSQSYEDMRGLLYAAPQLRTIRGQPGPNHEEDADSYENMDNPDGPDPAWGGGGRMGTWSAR", "assay": "FACS, cynomolgus PBMC, CD20+ B cells", "units": {"Proportion of chimeric antibody positive cells to B cells (%) at 1 nM": "%", "Proportion of chimeric antibody positive cells to B cells (%) at 10 nM": "%", "Proportion of chimeric antibody positive cells to B cells (%) at 100 nM": "%"}, "values": [
      {"binder": "B1", "Proportion of chimeric antibody positive cells to B cells (%) at 1 nM": 2, "Proportion of chimeric antibody positive cells to B cells (%) at 10 nM": 2, "Proportion of chimeric antibody positive cells to B cells (%) at 100 nM": 12},
      {"binder": "B2", "Proportion of chimeric antibody positive cells to B cells (%) at 1 nM": 2, "Proportion of chimeric antibody positive cells to B cells (%) at 10 nM": 2, "Proportion of chimeric antibody positive cells to B cells (%) at 100 nM": 6},
      {"binder": "B3", "Proportion of chimeric antibody positive cells to B cells (%) at 1 nM": 1, "Proportion of chimeric antibody positive cells to B cells (%) at 10 nM": 1, "Proportion of chimeric antibody positive cells to B cells (%) at 100 nM": 2},
      {"binder": "B4", "Proportion of chimeric antibody positive cells to B cells (%) at 1 nM": 1, "Proportion of chimeric antibody positive cells to B cells (%) at 10 nM": 2, "Proportion of chimeric antibody positive cells to B cells (%) at 100 nM": 3}
    ]}
  ]
}
